Laboratory results taken from US20110064668A1.

What was measured:
[1] = molecular target: Kv1.6 channel; experiment: cell-based or functional assay
[2] = molecular target: α3β4 subtype of rat neuronal nAChR (rat), P04757; experiment: cell-based or functional assay
Chain of α3β4 subtype of rat neuronal nAChR (rat), P04757 (P04757 26-499, chain 1 of 2): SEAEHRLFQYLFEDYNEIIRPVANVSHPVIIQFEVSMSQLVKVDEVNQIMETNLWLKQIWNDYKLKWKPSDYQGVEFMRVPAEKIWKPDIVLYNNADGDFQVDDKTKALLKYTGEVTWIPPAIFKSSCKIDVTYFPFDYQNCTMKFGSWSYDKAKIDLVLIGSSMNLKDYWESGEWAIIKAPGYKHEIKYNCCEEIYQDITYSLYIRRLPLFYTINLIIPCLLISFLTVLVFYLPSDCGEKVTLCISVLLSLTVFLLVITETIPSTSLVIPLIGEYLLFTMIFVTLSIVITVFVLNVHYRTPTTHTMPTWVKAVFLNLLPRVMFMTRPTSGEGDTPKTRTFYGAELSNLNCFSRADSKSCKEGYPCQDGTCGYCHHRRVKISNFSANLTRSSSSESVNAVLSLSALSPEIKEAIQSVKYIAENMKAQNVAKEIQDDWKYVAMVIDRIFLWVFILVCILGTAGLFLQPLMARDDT
Chain of α3β4 subtype of rat neuronal nAChR (rat), P04757 (P12392 21-495, chain 2 of 2, further chain): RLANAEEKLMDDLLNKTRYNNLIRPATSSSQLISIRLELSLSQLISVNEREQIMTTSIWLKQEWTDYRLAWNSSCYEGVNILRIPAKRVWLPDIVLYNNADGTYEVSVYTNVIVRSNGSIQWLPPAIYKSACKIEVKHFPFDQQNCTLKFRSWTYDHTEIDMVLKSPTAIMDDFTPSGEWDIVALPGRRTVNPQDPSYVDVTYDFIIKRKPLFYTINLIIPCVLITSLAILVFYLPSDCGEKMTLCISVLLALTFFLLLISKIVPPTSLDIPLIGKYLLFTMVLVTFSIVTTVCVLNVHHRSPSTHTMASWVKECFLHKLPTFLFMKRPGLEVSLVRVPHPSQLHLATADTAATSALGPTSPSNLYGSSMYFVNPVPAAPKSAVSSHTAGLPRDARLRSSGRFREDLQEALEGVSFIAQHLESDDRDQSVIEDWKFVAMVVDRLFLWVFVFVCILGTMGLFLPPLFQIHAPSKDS

FPRPRICNLACRAGIGHKYPFCHCR (modifications not checked) [conotoxin pl14a] showed an IC50, µM (vitelline membrane retained) [1] of 3.12 µM, an IC50 for the block of Kv1.6 currents (vitelline membrane removed) [1] of 1.59 µM and an IC50 in α3β4 (nM), block of ACh-elicited current in oocytes [2] of 8700 nM.
